In the experiment the target is microtubules (polymerised α/β-tubulin) (UniProt Q6B856).
Chain of UniProt Q6B856 (Q6B856 whole entry, looked up): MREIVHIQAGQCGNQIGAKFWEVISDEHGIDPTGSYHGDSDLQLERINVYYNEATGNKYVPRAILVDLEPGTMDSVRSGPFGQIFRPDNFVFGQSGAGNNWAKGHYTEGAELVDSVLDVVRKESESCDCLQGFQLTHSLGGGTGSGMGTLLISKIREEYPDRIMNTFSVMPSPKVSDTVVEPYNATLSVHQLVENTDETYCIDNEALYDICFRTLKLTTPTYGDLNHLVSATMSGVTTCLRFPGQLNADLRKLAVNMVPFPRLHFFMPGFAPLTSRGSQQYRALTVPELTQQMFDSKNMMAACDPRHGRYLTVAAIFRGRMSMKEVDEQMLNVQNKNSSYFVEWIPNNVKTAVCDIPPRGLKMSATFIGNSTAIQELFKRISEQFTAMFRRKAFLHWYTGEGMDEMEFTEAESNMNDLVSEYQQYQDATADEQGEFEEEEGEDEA

Take “human CEN subcomplex with Borealin R17E, R19E, K20E (CEN-Borealin^MTBM) (from UniProt Q9NQS7 1-58; O15392 1-142; Q53HL2 1-280)”: the width of bundles of GMpCpp-stabilized rhodamine-labeled MTs (100 nM) after 2 min with 4 μM CEN, TIRF microscopy (single GMpCpp MTs measure 0.34 μm) came to 0.36 μm.

(Values after paper PMC10876603.)
